Here are results for ten molecules from patent US20170015742A1 (published 2017).

Substitutions are numbered along the chain they refer to. Names may count otherwise.

Sequences and labels used below:
B1: BEW-1E3-D6 (antibody, IgG2b, V domains shown)
VH: QIQLVQSGPELKKPGESVKISCKASGYPFTNSGMYWVKQAPGQGLQYMGWINTEAGKPTYADDFKGRFVFFLETSASTAYLQINNLKNEDMATYFCARWGYISDNSYGWFDYWGQGTLVTVSS
VL: DTVLTQSPALAVSPGERVSISCRASEGVYSYMHWYQQNPGQQPKLLIYKASNLASGVPARFSGSGSGTDFTLTIDPVEADDTATYFCHQNWNDPLTFGSGTKLEIK
B2: BEW-8E6-E4 (antibody, IgG2a, V domains shown)
VH: QIQLVQSGPELKKPGESVKISCKASGYTFTDYAMHWVKQAPGKVLKWMGWINTFTGKPTYIDDFKGRFVFSLEASASTANLQISDLKNEDTATYFCARGNYYSGYWYFDFWGPGTMVTMSS
VL: DIQMTQSPASLSASLGETISIECRASEDISSNLAWYQQKSGKSPQLLIFAANRLQDGVPSRFSGSGSGTQFSLKISGMQPEDEGDYFCLQGSKFYTFGAGTKLELK
B3: BEW-3A1-D10-G9 (antibody, IgG2b, V domains shown)
VH: QVQLEQSGAELVKPGTSVKLSCMASGYTSSSNHMNWMKQTTGQGLEWIGIINPGSGGTRYNVKFEGKATLTVDKSSSTAFMQLNSLTPEDSAVYYCARAGFPGPFSYYAMGAWGQGTSVTVSS
VL: DIQMTQSPPVLSASVGDRVTLSCKASQNIHNNLDWYQQKHGEAPKLLIFYTNNLQTGIPSRFSGSGSGTDYTLTISSLQPEDVATYYCYQYNSGYTFGAGTKLELK
B4: BEW-6C2-C8 (antibody, IgG2b, V domains shown)
VH: EVQLVESGGGLVQPGSSLKLSCAASGFTFSYYGMHWIRQAPKKGLEWMALIYYDSSKMYYADSVKGRFTISRDNSKNTLYLEMNSLRSEDTAMYYCAAGGTAPVYWGQGVMVTVSS
VL: NIQLTQSPSLLSASVGDRVTLSCKGSQNIANYLAWYQQKLGEAPKLLIYNTDSLQTGIPSRFSGSGSGTDYTLTISSLQPEDVATYFCYQSNNGYTFGAGTKLELR
B5: BEW-1B10-B9-C3 (antibody, IgG2a, V domains shown)
VH: EVQLVESGGGLVQPGRSLKLSCAASGFSFSKYDMAWFRQTPTKGLEWVASITTSGVGTYYRDSVKGRFTVSRDNAKSTLYLQMDSLRSEDTATYYCARGYGAMDAWGQGTSVTVSS
VL: DIQMTQSPASLSASLEEIVTITCKASQDIDDYLSWYQQKPGKSPQLVIYAATRLADGVPSRFSGSGSGTQYSLKISRLQVDDSGIYYCLQSSSTPWTFGGGTNLELK
B6: BEW-9A8-E2 (antibody, IgG2a, V domains shown)
VH: QIQLVQSGPELKKPGESVKISCKASGYTFTNYGMYWVKQAPGQGLQYMGWINTETGKPIYADDFKGRFVFFLETSASTAYLQINNLKNEDMATFFCARVDYDGSFWFAYWGQGTLVTVSS
VL: DTVLTQSPALAVSPGERVSISCRASESVSTVIHWYQQKPGQQPKLLIHGASNLESGVPARFSGSGSGTDFTLTIDPVEADDTATYFCQQHWNDPPTFGAGTKLEMK
B7: BEW-5C3-E7 (antibody, IgG2b, V domains shown)
VH: QIQLVQSGPELKKPGESVKISCKASGYTFTNYGVYWVKQAPGQGLQYMGWINTETGKPTYADDFKGRFVFFLETSTNTAYLQINNLKNEDMATFFCARARQLDWFVYWGQGTLVTVSS
VL: DTVLTQSPALTVSPGERVSISCRARESLTTSLCWFQQKPGQQPKLLIYGASKLESGVPARFSGSGSGTDFTLTIDPVEADDTATYFCQQSWYDPPTFGGGTKLELK
B8: 4G8.3-LS-9E8.4 (g) (PR-1572106) (bispecific antibody, human IgG1, kappa, L234A L235A)
heavy: EVQLVQSGSELKKPGASVKVSCKASGYTFTNYGMYWVRQAPGQGLEWMGWINTETGKPTYADDFKGRFVFSLDTSVSTAYLQISSLKAEDTAVYYCARTNYYYRSYIFYFDYWGQGTMVTVSSASTKGPSVFPLAPEVTLRESGPALVKPTQTLTLTCTFSGFSLSTYGMGVGWIRQPPGKALEWLANIWWDDDKYYNPSLKNRLTISKDTSKNQVVLTMTNMDPVDTATYYCARIESIGTTYSFDYWGQGTMVTVSSASTKGPSVFPLAPSSKSTSGGTAALGCLVKDYFPEPVTVSWNSGALTSGVHTFPAVLQSSGLYSLSSVVTVPSSSLGTQTYICNVNHKPSNTKVDKKVEPKSCDKTHTCPPCPAPEAAGGPSVFLFPPKPKDTLMISRTPEVTCVVVDVSHEDPEVKFNWYVDGVEVHNAKTKPREEQYNSTYRVVSVLTVLHQDWLNGKEYKCKVSNKALPAPIEKTISKAKGQPREPQVYTLPPSREEMTKNQVSLTCLVKGFYPSDIAVEWESNGQPENNYKTTPPVLDSDGSFFLYSKLTVDKSRWQQGNVFSCSVMHEALHNAYTQKSLSLSPGK
light: DTVLTQSPATLSLSPGERATLSCRASESVSTHMHWYQQKPGQAPRLLIYGASNLESGVPARFSGSGSGTDFTLTISSLEPEDFAVYFCQQSWNDPFTFGQGTKLEIKRTVAAPEFVLTQSPGTLSLSPGERATLSCERSSGDIGDSYVSWYQQKPGQAPRLVIYADDQRPSGIPDRFSGSGSGTDFTLTISRLEPEDFAVYYCQSYDINIDIVFGGGTKVEIKRTVAAPSVFIFPPSDEQLKSGTASVVCLLNNFYPREAKVQWKVDNALQSGNSQESVTEQDSKDSTYSLSSTLTLSKADYEKHKVYACEVTHQGLSSPVTKSFNRGEC
notes: DVD-Ig: outer hBDB-4G8.3 (VEGF), inner hBDI-9E8.4 (PDGF), linkers HG-long/LK-short; Human IgG1 L234A, L235A, H435A with kappa
B9: 4G8.3-LS-9E8.4E (PR-1575835) (bispecific antibody, human IgG1, kappa, L234A L235A)
heavy: B8 heavy
light: B8 light with D145E
notes: DVD-Ig: outer hBDB-4G8.3 (VEGF), inner hBDI-9E8.4E (PDGF), linkers HG-long/LK-short; Human IgG1 L234A, L235A, H435A with kappa
B10: 4G8.3-GS-9E8.4E (PR-1575832) (bispecific antibody, human IgG1, kappa, L234A L235A)
heavy: EVQLVQSGSELKKPGASVKVSCKASGYTFTNYGMYWVRQAPGQGLEWMGWINTETGKPTYADDFKGRFVFSLDTSVSTAYLQISSLKAEDTAVYYCARTNYYYRSYIFYFDYWGQGTMVTVSSGGGGSGGGGSEVTLRESGPALVKPTQTLTLTCTFSGFSLSTYGMGVGWIRQPPGKALEWLANIWWDDDKYYNPSLKNRLTISKDTSKNQVVLTMTNMDPVDTATYYCARIESIGTTYSFDYWGQGTMVTVSSASTKGPSVFPLAPSSKSTSGGTAALGCLVKDYFPEPVTVSWNSGALTSGVHTFPAVLQSSGLYSLSSVVTVPSSSLGTQTYICNVNHKPSNTKVDKKVEPKSCDKTHTCPPCPAPEAAGGPSVFLFPPKPKDTLMISRTPEVTCVVVDVSHEDPEVKFNWYVDGVEVHNAKTKPREEQYNSTYRVVSVLTVLHQDWLNGKEYKCKVSNKALPAPIEKTISKAKGQPREPQVYTLPPSREEMTKNQVSLTCLVKGFYPSDIAVEWESNGQPENNYKTTPPVLDSDGSFFLYSKLTVDKSRWQQGNVFSCSVMHEALHNAYTQKSLSLSPGK
light: DTVLTQSPATLSLSPGERATLSCRASESVSTHMHWYQQKPGQAPRLLIYGASNLESGVPARFSGSGSGTDFTLTISSLEPEDFAVYFCQQSWNDPFTFGQGTKLEIKRGGSGGGGSGEFVLTQSPGTLSLSPGERATLSCERSSGDIGESYVSWYQQKPGQAPRLVIYADDQRPSGIPDRFSGSGSGTDFTLTISRLEPEDFAVYYCQSYDINIDIVFGGGTKVEIKRTVAAPSVFIFPPSDEQLKSGTASVVCLLNNFYPREAKVQWKVDNALQSGNSQESVTEQDSKDSTYSLSSTLTLSKADYEKHKVYACEVTHQGLSSPVTKSFNRGEC
notes: DVD-Ig: outer hBDB-4G8.3 (VEGF), inner hBDI-9E8.4E (PDGF), linkers GS-H10/GS-L10; Human IgG1 L234A, L235A, H435A with kappa

For one experiment, the target named is T1, Human VEGF-A 165 (human, UniProt P15692 207-395).
T1 construct: also called hVEGF165; huVEGF-A165
T1 sequence (P15692 other isoform, or with tags, fused parts or gaps limits assumed): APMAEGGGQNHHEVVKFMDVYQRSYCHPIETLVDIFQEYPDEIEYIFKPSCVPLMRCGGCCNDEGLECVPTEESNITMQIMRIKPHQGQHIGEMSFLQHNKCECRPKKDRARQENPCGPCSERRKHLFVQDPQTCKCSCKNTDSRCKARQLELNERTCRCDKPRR
The experiment can be described thus: Biacore SPR (Example 1.1). How it is done: Unreacted moieties on the biosensor surface were blocked with ethanolamine. For kinetic analysis, rate equations derived from the 1:1 Langmuir binding model were fitted simultaneously to multiple antigen injections (using global fit analysis) with the use of Scrubber 2 (BioLogic Software), Biacore Biaevaluation 4.0.1 software or Biacore T100 Evaluation software. Purified antibodies or DVD-Ig molecules were diluted in running buffer for capture across goat anti-human Fc reaction surfaces. Antibodies or DVD-Ig molecules to be captured as a ligand (1 μg/ml) were injected over reaction matrices at a flow rate of 10 μl/minute. During the assay, all measurements were referenced against the capture surface alone (i.e., with no captured antibody or DVD-Ig molecule). […] The equilibrium dissociation constant KD (M) of the reaction between antibodies and the target antigen was then calculated from the kinetic rate constants by the following formula: KD=Koff/Kₒₙ. Binding was recorded as a function of time and kinetic rate constants were calculated. In this assay, on-rates as fast as 10⁶M⁻¹s⁻¹ and off-rates as slow as 10⁻⁶ s⁻¹ could be measured. […]
A general note: Surface plasmon resonance follows binding to a sensor surface in real time, without labels.
B1: the Kd (usually the concentration at which binding is half-saturated) was 0.01 nM and the on-rate constant (kon) – broadly, the second-order rate constant of association – is 1.4e+07 M⁻¹ s⁻¹.

For B2, the Kd was found to be 0.017 nM and the kon was 6.9e+06 M⁻¹ s⁻¹.

With B3, the Kd is 0.14 nM and the kon came out at 1e+07 M⁻¹ s⁻¹.

B4 returned a Kd of 0.012 nM and a kon of 6.9e+06 M⁻¹ s⁻¹.

In turn, B5 yielded a Kd of 0.016 nM and a kon of 4.4e+06 M⁻¹ s⁻¹.

With B6, the Kd was determined as 0.00096 nM and the kon came out at 7.4e+06 M⁻¹ s⁻¹.

Take B7: the Kd was found to be 0.0039 nM and the kon was 1.2e+07 M⁻¹ s⁻¹.

The target of a further experiment is T2, VEGF-A (human, UniProt P15692 207-395).
T2 construct: also called hVEGF165
T2 sequence (P15692 other isoform, or with tags, fused parts or gaps limits assumed): as above
The experiment can be described thus: Biacore SPR; DVD-Ig captured on anti-human Fc, antigen injected. The protocol: (§1) For example, approximately 9000 RU of goat anti-human Fc specific polyclonal antibody (Thermo Fisher Scientific Inc., Rockford, Ill.) diluted in 10 mM sodium acetate (pH 4.5) is directly immobilized across a CM5 research grade biosensor chip using a standard amine coupling kit according to manufacturer's instructions and procedures at 25 μg/ml. Unreacted moieties on the biosensor surface were blocked with ethanolamine. For kinetic analysis, rate equations derived from the 1:1 Langmuir binding model were fitted simultaneously to multiple antigen injections (using global fit analysis) with the use of Scrubber 2 (BioLogic Software), Biacore Biaevaluation 4.0.1 software or Biacore T100 Evaluation software. Purified antibodies or DVD-Ig molecules were diluted in running buffer for capture across goat anti-human Fc reaction surfaces. Antibodies or DVD-Ig molecules to be captured as a ligand (1 μg/ml) were injected over reaction matrices at a flow rate of 10 μl/minute. During the assay, all measurements were referenced against the capture surface alone (i.e., with no captured antibody or DVD-Ig molecule). […] The equilibrium dissociation constant KD (M) of the reaction between antibodies and the target antigen was then calculated from the kinetic rate constants by the following formula: KD=Koff/Kₒₙ. Binding was recorded as a function of time and kinetic rate constants were calculated.
In the case of B8, the Kd amounted to 0.0081 nM and the kon amounted to 6.3e+06 M⁻¹ s⁻¹.

The molecule B9 displayed a Kd of 0.01 nM and a kon of 5.8e+06 M⁻¹ s⁻¹.

With B10, the Kd amounted to 0.013 nM and the kon was determined as 6.1e+06 M⁻¹ s⁻¹.

The target of the next experiment is T3, PDGF-BB (human, UniProt P01127 82-190, limits assumed).
T3 construct: also called human PDGF-BB; hPDGF-BB
T3 sequence (P01127 82-190 limits assumed): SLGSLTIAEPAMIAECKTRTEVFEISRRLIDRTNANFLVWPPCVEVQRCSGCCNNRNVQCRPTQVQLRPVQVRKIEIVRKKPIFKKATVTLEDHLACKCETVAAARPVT
Described as above. How it is done:
as §1
For B8, the Kd came out at 0.011 nM and the kon is 1.8e+07 M⁻¹ s⁻¹.

B9: binding was characterised by a dissociation constant (Kd) of 0.014 nM and the kon stood at 2e+07 M⁻¹ s⁻¹.

Turning to B10, the Kd turned out to be 0.02 nM and the kon came out at 1.3e+07 M⁻¹ s⁻¹.
